These are literature values, as cited in PMC7232523.

A word on the Kd: it is the equilibrium constant for the complex coming apart.

Data set [1] addresses IL-4Ra (Homo sapiens) (UniProt P24394).
Data set [2] has as its target IL-13Ra1/IL-4Ra (Homo sapiens) (UniProt P78552).
UniProt P78552, sequence (P78552 22-343, chain 1 of 2): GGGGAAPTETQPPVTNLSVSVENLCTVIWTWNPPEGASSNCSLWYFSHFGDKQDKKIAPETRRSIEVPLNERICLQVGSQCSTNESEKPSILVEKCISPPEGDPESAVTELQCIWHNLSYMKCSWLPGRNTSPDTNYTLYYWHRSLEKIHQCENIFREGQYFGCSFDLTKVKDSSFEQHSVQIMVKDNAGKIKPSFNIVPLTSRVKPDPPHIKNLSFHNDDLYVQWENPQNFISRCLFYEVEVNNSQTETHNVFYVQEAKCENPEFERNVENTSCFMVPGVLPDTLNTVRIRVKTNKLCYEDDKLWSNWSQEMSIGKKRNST
UniProt P78552, sequence (P24394 26-232, chain 2 of 2, further chain): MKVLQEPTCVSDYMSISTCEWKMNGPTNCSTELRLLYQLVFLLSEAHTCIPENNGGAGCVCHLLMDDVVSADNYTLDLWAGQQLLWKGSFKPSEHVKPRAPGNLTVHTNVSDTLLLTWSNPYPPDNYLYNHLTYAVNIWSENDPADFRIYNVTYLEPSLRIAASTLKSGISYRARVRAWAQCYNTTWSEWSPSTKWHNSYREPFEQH

UniProt P24394, sequence (P24394 26-232): as the sequence (P24394 26-232, chain 2 of 2, further chain) above

Turning to IL-4 (from UniProt P05112), the Kd in data set [1] is 100 pM. In the case of IL-13 (from UniProt P35225), the dissociation constant Kd in data set [2] is 35 pM.
